According to patent US20260041744:

Target: cellular receptors (CIMPR) on normal and Pompe patient fibroblasts (UniProt P11717)
Sequence (P11717 41-2491): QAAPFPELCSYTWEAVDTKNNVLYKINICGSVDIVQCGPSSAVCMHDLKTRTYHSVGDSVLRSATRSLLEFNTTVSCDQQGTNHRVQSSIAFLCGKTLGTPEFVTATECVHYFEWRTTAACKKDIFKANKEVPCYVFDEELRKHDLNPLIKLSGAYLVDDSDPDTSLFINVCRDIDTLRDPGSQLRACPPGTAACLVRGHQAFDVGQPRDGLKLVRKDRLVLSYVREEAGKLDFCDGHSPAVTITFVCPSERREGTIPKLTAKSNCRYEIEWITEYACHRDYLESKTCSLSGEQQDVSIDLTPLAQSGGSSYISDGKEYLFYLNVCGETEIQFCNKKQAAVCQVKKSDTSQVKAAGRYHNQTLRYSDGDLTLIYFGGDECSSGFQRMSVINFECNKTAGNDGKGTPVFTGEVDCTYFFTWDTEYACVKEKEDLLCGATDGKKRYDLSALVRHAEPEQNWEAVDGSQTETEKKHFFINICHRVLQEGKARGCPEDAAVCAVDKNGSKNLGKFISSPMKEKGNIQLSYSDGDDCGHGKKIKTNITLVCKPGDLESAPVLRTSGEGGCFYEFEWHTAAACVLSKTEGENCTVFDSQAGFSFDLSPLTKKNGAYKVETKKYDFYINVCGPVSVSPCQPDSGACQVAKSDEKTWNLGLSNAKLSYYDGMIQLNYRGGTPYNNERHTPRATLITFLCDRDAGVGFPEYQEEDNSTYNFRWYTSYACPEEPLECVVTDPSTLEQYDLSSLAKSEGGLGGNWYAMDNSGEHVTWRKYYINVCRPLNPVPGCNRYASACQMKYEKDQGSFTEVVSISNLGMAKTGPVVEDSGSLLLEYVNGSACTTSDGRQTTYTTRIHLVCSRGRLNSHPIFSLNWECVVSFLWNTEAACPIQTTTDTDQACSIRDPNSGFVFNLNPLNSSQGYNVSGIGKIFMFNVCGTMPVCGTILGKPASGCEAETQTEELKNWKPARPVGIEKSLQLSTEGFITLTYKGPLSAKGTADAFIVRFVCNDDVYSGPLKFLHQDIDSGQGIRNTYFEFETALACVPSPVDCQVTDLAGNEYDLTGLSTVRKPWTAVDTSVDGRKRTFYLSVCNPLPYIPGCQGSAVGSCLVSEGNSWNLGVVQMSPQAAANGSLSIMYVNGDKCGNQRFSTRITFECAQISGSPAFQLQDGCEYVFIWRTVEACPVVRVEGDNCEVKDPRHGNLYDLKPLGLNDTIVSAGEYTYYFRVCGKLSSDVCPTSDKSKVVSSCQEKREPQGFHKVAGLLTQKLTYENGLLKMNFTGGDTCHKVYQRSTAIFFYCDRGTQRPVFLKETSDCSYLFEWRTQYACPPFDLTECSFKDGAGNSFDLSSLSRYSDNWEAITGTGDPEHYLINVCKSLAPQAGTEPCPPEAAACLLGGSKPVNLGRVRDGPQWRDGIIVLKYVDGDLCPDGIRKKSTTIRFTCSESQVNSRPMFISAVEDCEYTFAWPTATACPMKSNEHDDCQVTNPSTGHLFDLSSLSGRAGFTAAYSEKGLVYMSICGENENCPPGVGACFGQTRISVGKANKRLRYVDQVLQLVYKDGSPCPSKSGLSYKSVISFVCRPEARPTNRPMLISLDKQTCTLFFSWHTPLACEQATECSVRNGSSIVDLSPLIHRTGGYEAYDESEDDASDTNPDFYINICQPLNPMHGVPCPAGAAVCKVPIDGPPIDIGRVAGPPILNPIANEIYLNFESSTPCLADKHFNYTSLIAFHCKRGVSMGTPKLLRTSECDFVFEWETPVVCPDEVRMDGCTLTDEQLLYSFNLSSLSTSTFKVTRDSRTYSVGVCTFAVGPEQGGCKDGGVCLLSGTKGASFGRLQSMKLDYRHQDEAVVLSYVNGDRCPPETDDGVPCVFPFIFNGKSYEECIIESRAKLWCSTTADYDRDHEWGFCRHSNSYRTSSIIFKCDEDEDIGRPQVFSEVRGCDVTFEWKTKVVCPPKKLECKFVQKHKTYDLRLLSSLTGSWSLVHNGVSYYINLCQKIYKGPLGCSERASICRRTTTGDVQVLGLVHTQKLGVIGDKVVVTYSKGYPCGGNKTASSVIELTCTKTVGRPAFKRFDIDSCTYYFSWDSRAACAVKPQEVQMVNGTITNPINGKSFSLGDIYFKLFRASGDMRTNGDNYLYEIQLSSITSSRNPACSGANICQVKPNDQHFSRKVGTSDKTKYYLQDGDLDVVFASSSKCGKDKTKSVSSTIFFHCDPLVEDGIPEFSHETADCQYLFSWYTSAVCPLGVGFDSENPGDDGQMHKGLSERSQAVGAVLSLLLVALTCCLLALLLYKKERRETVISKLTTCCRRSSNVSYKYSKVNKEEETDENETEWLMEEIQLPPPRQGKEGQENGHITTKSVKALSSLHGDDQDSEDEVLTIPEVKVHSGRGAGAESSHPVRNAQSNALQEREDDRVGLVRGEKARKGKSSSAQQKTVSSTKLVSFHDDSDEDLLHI

Substance	stated: internalized; internalized GAA activity (nmol/mg protein/hr) in skeletal muscle myoblasts against rhGAA added (nM)	stated: internalized; internalized GAA activity (pmol 4-MU/mg/h), 4MU-α-Glc assay, Pompe patient fibroblasts, 20 nM rhGAA	stated: taken up; internalized GAA activity in CRL 2076 (normal fibroblasts)	stated: taken up; internalized GAA activity in PM25 (Pompe fibroblasts)	stated: not internalized; internalized GAA activity (pmol 4-MU/mg/h), 4MU-α-Glc assay, Pompe patient fibroblasts, 20 nM rhGAA
alglucosidase alfa (mock-treated control of Example 16)	Alglucosidase alfa curve rises slowly: about 150 near 30 nM, about 250 near 60 nM, about 390 at 125 nM, about 475 at 250 nM. It is still rising with no plateau and lies below ATB200 at every concentration	bar 'Alglucosidase alfa + Mock' lies a little below the 300 tick, clearly above untreated cells and well below the cipaglucosidase alfa + Mock bar	–	–	–
LUMIZYME® (alglucosidase alfa, conventional rhGAA product)	–	–	curve marked Alglucosidase Alfa rises slowly: about 8 at about 10 nM, about 16 at about 27 nM, about 23 at about 80 nM, about 35 nmol/mg protein/hr at about 240 nM, no clear plateau; with +M6P at about 240 nM (square) about 1	curve marked Alglucosidase Alfa rises slowly: about 7 at about 10 nM, about 13 at about 27 nM, about 27 at about 80 nM, about 37 nmol/mg protein/hr at about 240 nM, still rising; with +M6P at about 245 nM (square) about 3	–
PAP-treated cipaglucosidase alfa (dephosphorylated cipaglucosidase alfa)	–	–	–	–	bar 'Cipaglucosidase alfa + PAP' is at about 0, at the level of 'Untreated Cells' and 'PAP Alone'
ATB200 rhGAA (recombinant human acid α-glucosidase produced from CHO cell line GA-ATB200)	ATB200 curve rises steeply from 0, to about 400 near 15 nM and about 540 near 30 nM, then flattens: about 630 near 60 nM, about 700 at 125 nM, about 740 at 250 nM	bar 'Cipaglucosidase alfa + Mock' is the highest, a little above the 900 tick; untreated cells are at 0	curve marked ATB200 rises steeply from about 0 to about 26 at about 10 nM and about 33 nmol/mg protein/hr at about 27 nM, then plateau of about 34-35 up to about 240 nM; with +M6P at about 240 nM (triangle) only about 5	curve marked ATB200 rises steeply from about 0 to about 30 at about 10 nM and about 36 at about 27 nM, then plateau of about 40 nmol/mg protein/hr at about 80 nM (point of about 45 at about 240 nM); with +M6P at about 245 nM (triangle) about 1	–
